Experimental data published in paper PMC6330308, “Light-Induced Thiol Oxidation of Recoverin Affects Rhodopsin Desensitization” (Frontiers in Molecular Neuroscience, 2018).
Positions count from the first letter of the chain named.

T1: Recombinant myristoylated bovine recoverin (reduced monomer) (bovine, UniProt P21457 2-202, N-terminal myristoyl group (degree of myristoylation more than 95%))
T1 construct: recoverin, bovine, recombinant wild type, myristoylated, C39 thiol reduced; Myristoylation implies that the initiator Met is removed and Gly2 carries the myristoyl group (surmised); also called RmRec; reduced monomer of recombinant wild type recoverin; source: recombinant, prepared according to previously published procedure (Zernii et al., 2011)
T1 sequence: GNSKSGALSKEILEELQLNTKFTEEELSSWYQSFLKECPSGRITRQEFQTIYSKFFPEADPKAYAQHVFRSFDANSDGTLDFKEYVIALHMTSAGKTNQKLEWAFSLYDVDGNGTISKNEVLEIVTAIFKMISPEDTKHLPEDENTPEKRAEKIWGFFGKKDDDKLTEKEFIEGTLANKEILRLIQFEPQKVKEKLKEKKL

T2: Oxidized monomer of recombinant wild type recoverin (bovine, UniProt P21457 2-202, N-terminal myristoyl group; C39 thiol oxidized (sulfenic/sulfinic acid; Figure 9 legend: C39 converted into sulfinic acid))
T2 construct: recoverin, bovine, recombinant wild type, myristoylated, monomer with oxidized C39; also called OmRec; thiol-oxidized monomer of recoverin; source: prepared from RmRec by incubation with 0.005% H2O2 at 30°C for 5 h, separated by gel-filtration (Superdex 75)
T2 sequence: T1 sequence

T3: GRK1 (rhodopsin kinase) (bovine (endogenous in ROS), UniProt P28327 1-561)
T3 sequence (looked up): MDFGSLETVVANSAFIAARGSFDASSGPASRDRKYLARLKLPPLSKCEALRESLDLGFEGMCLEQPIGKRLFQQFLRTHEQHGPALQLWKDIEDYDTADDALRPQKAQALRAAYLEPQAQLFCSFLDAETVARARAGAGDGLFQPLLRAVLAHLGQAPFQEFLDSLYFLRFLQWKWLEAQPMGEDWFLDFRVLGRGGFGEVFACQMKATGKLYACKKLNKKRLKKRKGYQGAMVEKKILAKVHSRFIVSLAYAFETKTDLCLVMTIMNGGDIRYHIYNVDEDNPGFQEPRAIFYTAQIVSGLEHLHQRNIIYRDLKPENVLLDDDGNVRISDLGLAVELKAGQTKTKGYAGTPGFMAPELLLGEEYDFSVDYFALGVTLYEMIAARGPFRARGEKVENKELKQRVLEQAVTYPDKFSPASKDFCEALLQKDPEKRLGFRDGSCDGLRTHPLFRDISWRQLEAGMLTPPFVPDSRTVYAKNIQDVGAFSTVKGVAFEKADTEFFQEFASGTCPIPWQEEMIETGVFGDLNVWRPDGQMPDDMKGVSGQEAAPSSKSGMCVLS

B1: N-terminal fragment of GRK1 (amino acids M1-S25) fused with glutathione-S-transferase (domain or fragment, UniProt P28327 1-25, looked up)
chain: MDFGSLETVVANSAFIAARGSFDAS
notes: GRK1 (rhodopsin kinase), fragment M1-S25; also called 1-25GRK1; 1-25RK; source: obtained according to previously published procedure (Grigoriev et al., 2012)
B2: N-terminal domain of GRK1 (amino acids Met1-Gly183) fused with glutathione-S-transferase (domain or fragment, UniProt P28327 1-183, looked up)
chain: MDFGSLETVVANSAFIAARGSFDASSGPASRDRKYLARLKLPPLSKCEALRESLDLGFEGMCLEQPIGKRLFQQFLRTHEQHGPALQLWKDIEDYDTADDALRPQKAQALRAAYLEPQAQLFCSFLDAETVARARAGAGDGLFQPLLRAVLAHLGQAPFQEFLDSLYFLRFLQWKWLEAQPMG
notes: GRK1 (rhodopsin kinase), N-terminal domain, amino acids Met1-Gly183; also called N-GRK1; N-terminal domain of rhodopsin kinase; source: obtained according to previously published procedure (Grigoriev et al., 2012)
B3: Recoverin mutant C39D (natural protein, bovine)
chain: T1 sequence with C38D
modifications: N-terminal myristoyl group (degree of myristoylation more than 95%)

Key:
[1] = molecular target: GRK1 (rhodopsin kinase) (bovine (endogenous in ROS)) (UniProt P28327)
[2] = molecular target: N-terminal domain of GRK1 (amino acids Met1-Gly183) fused with glutathione-S-transferase (UniProt P28327); experiment: SPR; GST-fused N-GRK1 or 1-25GRK1 immobilised by amine coupling on ProteOn GLH chip; recoverin forms 1-40 uM as analyte; 25°C; 10 mM HEPES, 150 mM NaCl, 0.05% TWEEN 20, pH 7.4, 1 mM CaCl2, 2 mM MgCl2; global fit to heterogeneous ligand model
[3] = molecular target: N-terminal fragment of GRK1 (amino acids M1-S25) fused with glutathione-S-transferase (UniProt P28327); experiment: as above
[4] = molecular target: T1, Recombinant myristoylated bovine …; experiment: as above; details: both partners purified
[5] = molecular target: T2, Oxidized monomer of recombinant wild …; experiment: as above; details: both partners purified
[6] = molecular target: B3; experiment: as above; details: both partners purified
[7] = molecular target: T3, GRK1 (rhodopsin kinase); experiment: cell-based or functional assay

Kd [4] [µM] | Kd [5] [µM] | Kd [6] [µM] | Molecule | also measured
 |  |  | Disulfide dimer of recombinant wild type recoverin (from UniProt P21457 2-202) (complex) | inhibition of GRK1 in rhodopsin phosphorylation assay, 20 uM dRec, 0.01 uM free Ca2+ [1]: 40%; inhibition of GRK1 in rhodopsin phosphorylation assay, 20 uM dRec, 200 uM free Ca2+ [1]: 70%; Kd [2]: 31.3 µM; Kd [3]: 31.2 µM
10.5 | 16 | 31.3 | B1 | 
5.35 | 31.3 | 50.2 | B2 | 
 |  |  | B3 | inhibition of GRK1 in rhodopsin phosphorylation assay, 40 uM C39D, 200 uM free Ca2+; decline of inhibitory efficiency against RmRec [7]: ~2 fold
